Experimental findings from US20250355001A1, “METHOD FOR DETECTING A TAU PROTEIN FRAGMENT IN A SAMPLE” (GTINVENT LIMITED, priority 2022, published 2025) are described below.

“And” between values parts separate entries of the source, which are not always exact repeats. Equal values may be shown once.

One data set concerns the target T1, htau40 (Homo sapiens, UniProt P10636).
T1 construct: Full length tau (hT40)
Briefly: Biacore X100 SPR kinetics of anti-tau mAbs on immobilised htau40. The class given is binding. The conditions noted are these: Table 27; mAb format, immobilised htau40. In outline: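 Htau40 amine-coupled to CM5 chip (~250 RU, pH 4.0 immobilisation), reference flow cell subtracted; mAb injected at 0.78–25 nM in HBS-EP+, 120 s association, 600 s dissociation, glycine pH 1.5 regeneration. Kinetic and affinity constants from 1:1 binding model fit.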
(Surface plasmon resonance follows binding to a sensor surface in real time, without labels.)

In data set [1] the test system is hT40, dGA, dGAE and truncated tau fragments. Briefly: Binding ELISA / epitope mapping of anti-tau scAbs with truncated tau proteins and 13mer peptides. Also noted: species or system human. A digest of the protocol: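 Plates coated with 1 μg/ml tau protein, or 5 μg/ml streptavidin then 1 μg/ml biotinylated 13mer peptide; blocked with 2% MPBS. scAbs added at a starting concentration and double-diluted. Bound scAb detected with HRP anti-human C kappa and read as absorbance.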
(An ELISA detects its analyte on a solid surface through an enzyme-linked reagent.)

In data set [2] the test system is tau fragments in plasma of WT, L1 and L66 mice. Kind of data set: Capture ELISA on transgenic mouse plasma. Conditions: Line66 transgenic model. The protocol: Plasma samples from WT, L1, L66+/− and L66+/+ of various ages (1.5-9 months) were taken as described. Mice were terminally anaesthetized using an overdose of sodium pentobarbital and blood was collected through cardiac puncture through a Plastipak syringe pre-rinsed with heparinised saline heparin (10 U/ml) (Heparin sodium salt; Sigma-Aldrich) and transferred into a plastic vial containing lithium heparin anticoagulant (Sarstedt Ltd.) Blood samples, kept on ice for no more than 30 minutes, were centrifuged to obtain plasma at 2000× g for 5 minutes at 6° C. Plasma samples were stored at −20° C.
For mouse plasma capture ELISA, 100 μL capture mAb was coated to the bottom of a black nunc 96 well ‘maxisorp’ plate at 2.5 μg/ml and incubated for 1 hour at 37° C. After washing and blocking as normal, several known standard solutions were set up in triplicate starting at 20 ng/ml of the desired protein before double diluted in the remaining wells. Mouse samples were added to wells in duplicate with a blank in between each sample group. Line1 plasma was diluted 1:10 before addition to plate to account for its high concentration while other samples were diluted 1:2 to account for potential matrix effects. […] The ELISA was developed using SuperSignal ELISA Femto Substrate (Thermo Scientific) and total luminescence was read on Clariostar Plus plate reader (BMG Labtech). […]

Data set [3] has as its target T2, hT40 (T441, SEQ ID NO: 1) (Homo sapiens, UniProt P10636).
T2 construct: Full length tau (hT40)
Briefly: Biacore X100 SPR kinetics of scAbs for hT40. The conditions noted are these: Table 23; scAb captured, T441 (hT40) analyte; 1:1 model. Format: binding. A digest of the protocol: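 Captured scAb on anti-HuCk CM5 surface (flow cell 1 as reference) in HBS-EP+, capture set for theoretical RMax 100 RU; hT40 injected multi-cycle (0.15625–100 nM) or single-cycle (6.25–100 nM), 120 s association, 420 s dissociation, glycine pH 2.0 regeneration. Kinetics and affinity from 1:1 binding model fit.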

In another data set the target is aggregated dGAE (Homo sapiens, UniProt P10636). Briefly: Capture ELISA ranking mAbs for capture of dGAE aggregates. Format: binding. The conditions noted are these: capture mAb 1 μg/ml; 800 nM aggregated dGAE. On the procedure: The aggregation cascade of natively unfolded tau into insoluble filaments is a defining pathological feature of AD. Therefore, it is logical to target aggregated tau filaments for both therapeutic and diagnostic purposes. The following experiment was performed to assess the ability of our dGA mAb panel to bind aggregated dGAE using a capture ELISA method. Aggregates were prepared by incubating 100 μM dGAE and 10 mM dTT for 24 h at 37° C. with shaking at 700 RPM. The following day, dGAE aggregates were centrifuged at 17,000×g for 20 min and the supernatant was removed. The remaining pellet was washed with 10 mM phosphate buffer and centrifuged as above. Washing was repeated a further two times to remove any remaining dGAE monomer. The dGAE pellet was resuspended in 100 μl of 10 mM phosphate buffer. (Using a separate capture ELISA based quantification, we have worked out the efficiency of our dGAE aggregation as 80%)
Following washing, 800 nM aggregated dGAE was added to the designated wells, double diluted across the plate and incubated for 1 h at RT. The plate was washed again and 1 μg/ml S1G2 scAb was added as detection antibody and incubated for 1 h at RT. To the row where S1G2 mAb was used for capture, […] s1D12 scAb was added as […] instead of S1G2. The assay was developed using HRP labelled HuCK as described previously.

T2 sequence (P10636 1-441 isoform P10636-8): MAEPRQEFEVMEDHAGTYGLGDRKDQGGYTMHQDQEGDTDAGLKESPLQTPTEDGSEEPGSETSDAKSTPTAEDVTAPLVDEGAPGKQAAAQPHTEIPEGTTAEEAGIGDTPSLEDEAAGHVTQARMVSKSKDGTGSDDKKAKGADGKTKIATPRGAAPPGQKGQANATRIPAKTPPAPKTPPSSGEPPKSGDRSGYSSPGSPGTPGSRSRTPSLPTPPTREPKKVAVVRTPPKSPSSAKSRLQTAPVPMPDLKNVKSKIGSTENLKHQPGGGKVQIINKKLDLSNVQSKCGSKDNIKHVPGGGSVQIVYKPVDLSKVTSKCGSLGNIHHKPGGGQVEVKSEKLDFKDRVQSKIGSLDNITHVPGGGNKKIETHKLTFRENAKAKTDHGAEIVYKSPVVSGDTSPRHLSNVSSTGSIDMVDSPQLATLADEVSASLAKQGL
T1 sequence (P10636 1-441 isoform P10636-8): as above
Sequence of aggregated dGAE (P10636 614-708): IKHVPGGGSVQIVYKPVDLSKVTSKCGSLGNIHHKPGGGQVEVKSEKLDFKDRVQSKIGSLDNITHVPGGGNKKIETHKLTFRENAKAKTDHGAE

B1: CB7: human-specific N-terminal anti-tau clone, Table 10; SEQ ID NO: 364 (protein)
scFv: QVQLQESGPSLVKPSQTLSLTCTVSGFSLTNYRVGWVRQAPGKALEWVSNIRSGGTTWYNPALKSRLSITADTSKSQVSLSLSSVTTEDTAVYYCARDSSGDLYAYDYWGPGLLVTVSSEGKSSGASGESKVDDQAVLTQPSSVSRSLGQSVSMTCSGSSSNVGYGNYMAWFQQVPGSAPKLLIYGATSRASGVPDRFSGSRSGNTATLTISSLQAEDEADYYCASYDSTSGGVFGSGTRLTVLG
modifications: CB7 amino acid sequence
In the case of B1, the “ka” value came out at 2.568e+06 M⁻¹ s⁻¹ with htau40 and 133400 M⁻¹ s⁻¹ in data set [3]. Moreover, the “kd” value was found to be 0.009451 s⁻¹ in the data set with htau40 and 0.0006936 s⁻¹ in data set [3]. In addition, in data set [1] (Table 17, 'C' group scAbs, binding ELISA), the “Tau proteins/fragments with positive scAb reactivity” value was “hT40, 1-49, 1-155, 1-319”. Further, in data set [1] (Table 17, 'C' group scAbs, incl. 13mer peptides), the “Shortest region bound on hT40” value was 13-25. The Epitope in data set [1] (Table 26 summary, top scAbs, residues of hT40) was 13-25; in data set [1] (residue numbers of SEQ ID NO: 1 (hT40), CDR Tables 1-11) it was 13-25. Also, in data set [1] (Table 28 (LoD table), residues of hT40), the “Detection scAb (Epitope)” value is on record as “CB7 (13-25)”. Moreover, the “binding region on hT40” value in data set [1] (amino acid residues of hT40) was 13-25 and 13-26. The “Binding region hT40” value in data set [1] (second Table 26, own antibodies) is recorded as “(Binding region hT40 13-25)”. The “cross reaction with endogenous mouse tau” value in data set [2] is given as “does not cross react with endogenous mouse tau protein”.

B2: E2E8 mAb: E2E8 reformatted; heavy chain SEQ ID NO: 493, light chain 494 (antibody)
heavy: QVQLQESGPSLVKPSQTLSLTCTVSGFSLTDRGVAWVRQAPGKALEWVGTMRSGGTIDYNPALKSRLSITRDTSKSQVFLSLSSVTTEDMAMYYCARGYLSGDRYAWGRGLLVTVSSAKTTAPSVYPLAPVCGDTTGSSVTLGCLVKGYFPEPVTLTWNSGSLSSGVHTFPAVLQSDLYTLSSSVTVTSSTWPSQSITCNVAHPASSTKVDKKIEPRGPTIKPCPPCKCPAPNLLGGPSVFIFPPKIKDVLMISLSPIVTCVVVDVSEDDPDVQISWFVNNVEVHTAQTQTHREDYNSTLRVVSALPIQHQDWMSGKEFKCKVNNKDLPAPIERTISKPKGSVRAPQVYVLPPPEEEMTKKQVTLTCMVTDFMPEDIYVEWTNNGKTELNYKNTEPVLDSDGSYFMYSKLRVEKKNWVERNSYSCSVVHEGLHNHHTTKSFSRTPGK
light: QAVLTQPSSVSKSLGQSVSIACSGSRSDIGYGNYVSWFQQIPGSAPKLLIYDTNTRASGVPDRFSGARSGNTATLTINSLQAEDEADYYCANIDSSRSHLFGSGTRLTVLGGQPKSSPSVTLFPPSSEELETNKATLVCTITDFYPGVVTVDWKVDGTPVTQGMETTQPSKQSNNKYMASSYLTLTARAWERHSSYSCQVTHEGHTVEKSLSRADCS
modifications: E2E8 mAB Heavy Chain; E2E8 mAB Light Chain
In the case of B2, the “ability to capture dGAE aggregates” value with aggregated dGAE is reported as “most efficient at capturing aggregated dGAE”.
